From patent publication US20110236309A1

Columns and labels:
[1] = target: TGF-β1 (Homo sapiens (Human)) (UniProt P01137)
[2] = target: T1, TGF-β3 (Homo sapiens (Human)) (UniProt P10600)
T1 sequence: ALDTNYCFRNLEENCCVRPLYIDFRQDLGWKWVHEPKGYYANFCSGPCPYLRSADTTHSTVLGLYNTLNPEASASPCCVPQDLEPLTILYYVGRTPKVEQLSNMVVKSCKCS

[3] = target: TGF-β1 (Homo sapiens (Human)) (UniProt P01137); remark: listed apart in the source
[4] = target: T1, TGF-β3 (Homo sapiens (Human)); remark: listed apart in the source

TGF-β1 (Homo sapiens (Human)), sequence (P01137 279-390 limits assumed): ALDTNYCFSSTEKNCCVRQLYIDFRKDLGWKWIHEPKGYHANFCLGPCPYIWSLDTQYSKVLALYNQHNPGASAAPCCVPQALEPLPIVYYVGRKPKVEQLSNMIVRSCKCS

B1: (TβRII)^2 homo-bivalent single-chain recombinant trap (designed binder, from a related filing)
chain: TIPPEQKLISEEDLLHVQKSVNNDMIVTDNNGAVKFPQLCKFCDVRFSTCDNQKSCMSNCSITSICEKPQEVCVAVWRKNDENITLETVCHDPKLPYHDFILEDAASPKCIMKEKKKPGETFFMCSCSSDECNDNIIFSEEYNTSNPDGGRHVQKSVNNDMIVTDNNGAVKFPQLCKFCDVRFSTCDNQKSCMSNCSITSICEKPQEVCVAVWRKNDENITLETVCHDPKLPYHDFILEDAASPKCIMKEKKKPGETFFMCSCSSDECNDNIIFSEEYNTSNPDHHHHHH
[1]
  fold potency against TβRII-ED (neutralization, Mv1Lu luciferase reporter cells): 100 fold
[2]
  fold potency against TβRII-ED (neutralization, Mv1Lu luciferase reporter cells): 100 fold
[3]
  IC50 for TGF-β1 (neutralization, Mv1Lu luciferase reporter cells): 1.36 nM
[4]
  IC50 for TGF-β3 (neutralization, Mv1Lu luciferase reporter cells): 0.336 nM

B2: (TβRIIb)^2 homo-bivalent single-chain recombinant trap (designed binder, from a related filing)
chain: APMAEGGGQNHHHHHHHHGGSFNPRIPPHVQKSVNNDMIVTDNNGAVKFPQLCKFCDVRFSTCDNQKSCMSNCSITSICEKPQEVCVAVWRKNDENITLETVCHDPKLPYHDFILEDAASPKCIMKEKKKPGETFFMCSCSSDECNDNIIFSEEYNTSNPDIPPHVQKSDVEMEAQKDEIICPSCNRTAHPLRHINNDMIVTDNNGAVKFPQLCKFCDVRFSTCDNQKSCMSNCSITSICEKPQEVCVAVWRKNDENITLETVCHDPKLPYHDFILEDAASPKCIMKEKKKPGETFFMCSCSSDECNDNIIFSEEYNTSNPD
[1]
  fold potency against TβRII-ED (neutralization, Mv1Lu luciferase reporter cells): 1000 fold
[2]
  fold potency against TβRII-ED (neutralization, Mv1Lu luciferase reporter cells): 1000 fold
[3]
  IC50 for TGF-β1 (neutralization, Mv1Lu luciferase reporter cells): 0.098 nM
[4]
  IC50 for TGF-β3 (neutralization, Mv1Lu luciferase reporter cells): 0.045 nM
